Stoichiometry N data for one substance are collected here from PMC5723419.

The experiment has as its target Aminopeptidase P from Pseudomonas aeruginosa (Pa-PepP) (Pseudomonas aeruginosa PA14). Kind of experiment: crystal structure.

What is called stoichiometry N is a count of units in the complex or per binding partner.

The substance “Aminopeptidase P from Pseudomonas aeruginosa (Pa-PepP) (enzyme)” yielded a stoichiometry N of 4.
